For test [1], the system named is SAEC-NHLF lung micro-tissue. As to the kind of experiment: Wnt11 treatment of 3D SAEC-NHLF lung micro-tissue: marker expression (qRT-PCR, PCR, immunofluorescence). The following applies: for AQP3 expression / E-cadherin expression / N-cadherin expression (EMT marker) / S100A4 expression (EMT marker) / SLUG expression (EMT marker): 3D cultures, Wnt11 SN vs control SN, mRNA in sorted lung epithelium; for pro-SFTPC protein expression: immunofluorescence, 3D micro-tissue, 72 hours, vs control SN. In kind it is cell-based, human. Here is the method:
(§1) Primary SAEC, NHLF and pulmonary HMVEC cells were purchased from Lonza. All cell types were isolated from the lungs of multiple random donors of different sexes and ages. We used SAGM, FGM or EGM-2 medium for the initial expansion of SAEC, NHLF or pulmonary HMVEC, respectively, as recommended by the manufacturer. All types of cell cultures were incubated in an atmosphere containing 5% CO2, at 37° C. For 2D and 3D culturing, pure or mixed cell populations were cultured in a 50-50% mixture of SAGM (Small Airway Growth Medium, Lonza) and complete DMEM. For two and three-cell cultures containing HMVEC cells, the appropriate growth factor supplements for HMVEC cells were added to the 50-50% mixture of SAGM and DMEM. The compositions of cell culture media were prepared in accordance with instructions of the manufacturer. For 2D and 3D culturing, cells were mixed at the indicated ratios and dispensed onto flat-bottom 6 well plates or 96-well V-bottom plates (Sarstedt), respectively. V-bottom plates were immediately centrifuged after cell seeding at 600×g for 10 minutes at room temperature.
SAEC and NHLF were stained with CFSE and DiI according to manufacturers instructions (Molecular probes). Cells were mixed and cultured for 72 hours in 2D and 3D systems. Stained cells were dissociated by mild trypsin treatment followed by PBS+EDTA treatment. Dissociated cells were sorted using a BD FACSVantage cell sorter into tubes with lysis buffer for mRNA preparation (Miltenyi Biotech).
After culturing cells in 3D for 3 days, micro-tissues were carefully removed from the V-bottom plates and fixed in 4% formaline for 10 minutes at room temperature. Fixed samples were covered with TissueTech cryostate embedding medium and 8 μm thick frozen sections were made. Sections were permeabilized in PBS buffer containing 0.1% saponine and 5% BSA for 30 minutes. Primary and secondary antibodies were diluted in the same buffer and incubated with the samples for 1-1 hour. Fluorescent images were acquired using an Olympus IX-81 fluorescent microscope. To ensure the comparability of expression levels of SFTPC, AQP3 and N-cad in Wnt11-SN— or Wnt11 siRNA-treated samples to their matched untreated controls, all images were captured with the same exposition settings.
Retroviral infection. Retroviral supernatants were generated from retroviral vectors containing Wnt11-GFP, or green fluorescence protein (GFP) only, in 293 cells. Epithelial cell line A549 was transformed using the above viruses in 24-well-plates, in 250 μl of viral supernatant and 50 μl of DMEM polybrene mix (final conc.: 8 μg/ml)/well, and then centrifuged for 60 min at 2100 rpm at room temperature. The cells were incubated for 3 days in fresh DMEM containing 10% FCS, then sorted based on GFP expression using FACSVantage cell sorter (BD Biosciences). GFP positive cells were then cultured as described above. The presence of Wnt11 protein were verified by immunoblotting and immunofluorescence using Wnt11 specific polyclonal antibody (AbCam) (FIG. 7).
All samples were set up in duplicates. Briefly, Ct values were determined for each sample using an automatic threshold level determined by the 7500 System SDS Software. Delta Ct (dCt) values were determined according to the following formula: dCt(target gene)=Ct(target gene)−Ct(housekeeping gene). Changes in gene expression are shown as RQ values calculated using the next formula: RQ=2^−ddCt, where ddCt values were calculated as ddCt=dCt(sample)−dCt(reference sample).

In test [2] the test system is SAEC-NHLF lung micro-tissue. As to the kind of experiment: Wnt11 SN treatment of 3D lung micro-tissue: haematoxilin-eosin morphology. The test is classed as cell-based, human. The following applies: 3D micro-tissue, 72 hours, vs control A549 SN. How it is done: as §1
Retroviral infection. Retroviral supernatants were generated from retroviral vectors containing Wnt11-GFP, or green fluorescence protein (GFP) only, in 293 cells. […]

The values below come from patent publication US9151744B2, “Lung tissue model” (Pécsi Tudományegyetem, priority 2009, dated 2015).

B1: Wnt11: Wnt11 protein, applied as supernatant (SN) of A549 cells transfected with lentiviral full-length Wnt11-IRES-GFP construct (protein, UniProt O96014 1-354, looked up)
chain: MRARPQVCEALLFALALQTGVCYGIKWLALSKTPSALALNQTQHCKQLEGLVSAQVQLCRSNLELMHTVVHAAREVMKACRRAFADMRWNCSSIELAPNYLLDLERGTRESAFVYALSAAAISHAIARACTSGDLPGCSCGPVPGEPPGPGNRWGGCADNLSYGLLMGAKFSDAPMKVKKTGSQANKLMRLHNSEVGRQALRASLEMKCKCHGVSGSCSIRTCWKGLQELQDVAADLKTRYLSATKVVHRPMGTRKHLVPKDLDIRPVKDSELVYLQSSPDFCMKNEKVGSHGTQDRQCNKTSNGSDSCDLMCCGRGYNPYTDRVVERCHCKYHWCCYVTCRRCERTVERYVCK
modifications: full-length
notes: Wnt11 protein, applied as supernatant (SN) of A549 cells transfected with lentiviral full-length Wnt11-IRES-GFP construct
Regarding B1, in test [1], the AQP3 expression entry is recorded as “up-regulation”, the E-cadherin expression result was “up-regulation”, the “N-cadherin expression (EMT marker)” value is reported as “down-regulation” and the “S100A4 expression (EMT marker)” value is reported as “down-regulation”. Besides, in test [1], the “SLUG expression (EMT marker)” value is “down-regulation” and the pro-SFTPC protein expression entry is “radical increase”. In addition, in test [1] (listed as Wnt11 SN), the AQP3 expression result is “increased”, the E-cadherin expression result was “increased”, the “N-cadherin expression (EMT marker)” value was “decreased” and the “S100A4 expression (EMT marker)” value is on record as “decreased”. In test [1] (listed as Wnt11 SN), the “SLUG expression (EMT marker)” value was “decreased” and the pro-SFTPC protein expression result is “dramatic increase”. Besides, in test [1] (PCR, Wnt11 treated cultures vs untreated control), the “SFTPA mRNA levels” value is given as “significant increase”. Moreover, the “surfactant expression (ATII type differentiation of alveolar epithelium)” value in test [1] (all studied culture conditions, in the presence of fibroblasts) is recorded as “drastic boost”. Moreover, in test [2], the “epithelial cell morphology (HE staining)” value is “increased number of cells with cuboid-like morphology”.
